Experimental data published in article PMC6586891, “On the molecular and cellular effects of omeprazole to further support its effectiveness as an antigiardial drug” (Scientific Reports, 2019).

Substrate: O=CC(O)COP(=O)(O)O
Experiment: Michaelis-Menten kinetics of purified enzyme (Km), coupled alpha-GDH/NADH assay
Type: biochemical, Giardia duodenalis

B1: Giardia lamblia triosephosphate isomerase (GlTIM WT) (Giardia duodenalis) (protein)
chain: MPARRPFIGGNFKCNGSLDFIKSHVAAIAAHKIPDSVDVVIAPSAVHLSTAIAANTSKQLRIAAQNVYLEGNGAWTGETSVEMLQDMGLKHVIVGHSERRRIMGETDEQSAKKAKRALEKGMTVIFCVGETLDERKANRTMEVNIAQLEALGKELGESKMLWKEVVIAYEPVWSIGTGVVATPEQAEEVHVGLRKWFAEKVCAEGAQHIRIIYGGSANGSNCEKLGQCPNIDGFLVGGASLKPEFMTMIDILTKTRT
notes: recombinant His-tag/TEV GlTIM WT
Km: 780 ± 60 µM
kcat: 7670 ± 267 s⁻¹
kcat/Km: 9.83e+06 M⁻¹ s⁻¹
